These results are taken from IntAct's records for PubMed 29039417.

B1: BBSome complex member BBS1 (Homo sapiens), Q8NFJ9 (parent)
chain: MAAASSSDSDACGAESNEANSKWLDAHYDPMANIHTFSACLALADLHGDGEYKLVVGDLGPGGQQPRLKVLKGPLVMTESPLPALPAAAATFLMEQHEPRTPALALASGPCVYVYKNLRPYFKFSLPQLPPNPLEQDLWNQAKEDRIDPLTLKEMLESIRETAEEPLSIQSLRFLQLELSEMEAFVNQHKSNSIKRQTVITTMTTLKKNLADEDAVSCLVLGTENKELLVLDPEAFTILAKMSLPSVPVFLEVSGQFDVEFRLAAACRNGNIYILRRDSKHPKYCIELSAQPVGLIRVHKVLVVGSTQDSLHGFTHKGKKLWTVQMPAAILTMNLLEQHSRGLQAVMAGLANGEVRIYRDKALLNVIHTPDAVTSLCFGRYGREDNTLIMTTRGGGLIIKILKRTAVFVEGGSEVGPPPAQAMKLNVPRKTRLYVDQTLREREAGTAMHRAFQTDLYLLRLRAARAYLQALESSLSPLSTTAREPLKLHAVVQGLGPTFKLTLHLQNTSTTRPVLGLLVCFLYNEALYSLPRAFFKVPLLVPGLNYPLETFVESLSNKGISDIIKVLVLREGQSAPLLSAHVNMPGSEGLAAA
partner: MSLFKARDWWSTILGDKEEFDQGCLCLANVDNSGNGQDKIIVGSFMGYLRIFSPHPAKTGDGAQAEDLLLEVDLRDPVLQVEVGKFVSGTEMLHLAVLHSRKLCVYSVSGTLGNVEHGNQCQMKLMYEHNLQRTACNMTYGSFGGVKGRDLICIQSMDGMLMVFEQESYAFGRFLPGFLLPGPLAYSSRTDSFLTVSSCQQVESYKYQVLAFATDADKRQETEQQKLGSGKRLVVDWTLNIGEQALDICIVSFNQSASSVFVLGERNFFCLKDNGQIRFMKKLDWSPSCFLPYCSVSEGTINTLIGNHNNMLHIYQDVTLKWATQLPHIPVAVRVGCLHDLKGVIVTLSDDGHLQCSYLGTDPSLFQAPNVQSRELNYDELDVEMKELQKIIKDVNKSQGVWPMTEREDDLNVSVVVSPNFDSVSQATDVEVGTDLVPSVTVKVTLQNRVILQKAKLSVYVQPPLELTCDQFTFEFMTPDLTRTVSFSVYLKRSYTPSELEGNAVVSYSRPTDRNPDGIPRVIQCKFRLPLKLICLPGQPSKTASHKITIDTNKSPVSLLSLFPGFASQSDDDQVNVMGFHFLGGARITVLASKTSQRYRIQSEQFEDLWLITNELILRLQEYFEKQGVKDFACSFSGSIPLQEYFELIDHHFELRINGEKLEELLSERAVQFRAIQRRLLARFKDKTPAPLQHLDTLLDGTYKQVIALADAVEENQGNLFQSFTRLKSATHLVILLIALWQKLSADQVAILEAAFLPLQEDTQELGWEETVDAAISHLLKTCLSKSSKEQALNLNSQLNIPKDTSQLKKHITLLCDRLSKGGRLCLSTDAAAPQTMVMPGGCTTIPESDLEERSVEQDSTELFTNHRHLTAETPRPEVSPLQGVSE

The variants in this assay derive from B1. The conditions noted are these: with pthb1_human BBS9, Q3SYG4.
For the variant V492E, the “effect of a mutation on the interaction” value was “with no effect”.

For the variant V492A, the “effect of a mutation on the interaction” value is “with no effect”.

In the case of V492K, the “effect of a mutation on the interaction” value is “with no effect”.

Take G494K: the “effect of a mutation on the interaction” value is “with no effect”.

Turning to G494E, the “effect of a mutation on the interaction” value is “with no effect”.

On to G494A, for which the “effect of a mutation on the interaction” value is given as “with no effect”.

Take L461K: the “effect of a mutation on the interaction” value was “with no effect”.

On to L461E, for which the “effect of a mutation on the interaction” value was “with no effect”.

Regarding L461A, the “effect of a mutation on the interaction” value is reported as “with no effect”.

Turning to A490K, the “effect of a mutation on the interaction” value was “with no effect”.

Take A490E: the “effect of a mutation on the interaction” value was “with no effect”.

Regarding T510A, the “effect of a mutation on the interaction” value was “with no effect”.

T510E: the “effect of a mutation on the interaction” value is “with no effect”.

T510K: the “effect of a mutation on the interaction” value was “with no effect”.

Take Y457E: the “effect of a mutation on the interaction” value is listed as “with no effect”.

As to Y457K, the “effect of a mutation on the interaction” value is listed as “with no effect”.

With S474K, the “effect of a mutation on the interaction” value is recorded as “with no effect”.

Take S474A: the “effect of a mutation on the interaction” value was “with no effect”.

For S474E, the “effect of a mutation on the interaction” value is listed as “with no effect”.

Turning to H504K, the “effect of a mutation on the interaction” value was “with no effect”.

In the case of H504E, the “effect of a mutation on the interaction” value is reported as “with no effect”.

For the variant H504A, the “effect of a mutation on the interaction” value is listed as “with no effect”.

As for A470E, the “effect of a mutation on the interaction” value was “with no effect”.

Turning to A470K, the “effect of a mutation on the interaction” value is “with no effect”.

For the variant R512E, the “effect of a mutation on the interaction” value is on record as “with no effect”.

Take R512K: the “effect of a mutation on the interaction” value is given as “with no effect”.

Consider R512A, for which the “effect of a mutation on the interaction” value is “with no effect”.

As to A463E, the “effect of a mutation on the interaction” value was “disrupting interaction strength”.

With A463K, the “effect of a mutation on the interaction” value is reported as “disrupting interaction strength”.

Take K500E: the “effect of a mutation on the interaction” value is on record as “with no effect”.

With K500A, the “effect of a mutation on the interaction” value is given as “with no effect”.

Take E472K: the “effect of a mutation on the interaction” value is “with no effect”.

As for E472A, the “effect of a mutation on the interaction” value is “with no effect”.

On to G516A, for which the “effect of a mutation on the interaction” value was “disrupting interaction strength”.

Regarding G516K, the “effect of a mutation on the interaction” value is listed as “with no effect”.

For G516E, the “effect of a mutation on the interaction” value is “with no effect”.

With R460K, the “effect of a mutation on the interaction” value is given as “with no effect”.

For the variant R460E, the “effect of a mutation on the interaction” value is reported as “with no effect”.

Turning to R460A, the “effect of a mutation on the interaction” value was “with no effect”.

With S473E, the “effect of a mutation on the interaction” value is given as “with no effect”.

In the case of S473A, the “effect of a mutation on the interaction” value was “with no effect”.

As to S473K, the “effect of a mutation on the interaction” value was “with no effect”.

With T480E, the “effect of a mutation on the interaction” value is on record as “with no effect”.

As for T480A, the “effect of a mutation on the interaction” value was “with no effect”.

For T480K, the “effect of a mutation on the interaction” value was “with no effect”.

Regarding R483K, the “effect of a mutation on the interaction” value is “with no effect”.

For the variant R483A, the “effect of a mutation on the interaction” value is “with no effect”.

R483E: the “effect of a mutation on the interaction” value is given as “with no effect”.

Consider Q506A, for which the “effect of a mutation on the interaction” value was “with no effect”.

As for Q506E, the “effect of a mutation on the interaction” value was “with no effect”.

Turning to Q506K, the “effect of a mutation on the interaction” value is “with no effect”.

With L459E, the “effect of a mutation on the interaction” value is “with no effect”.

On to L459K, for which the “effect of a mutation on the interaction” value is given as “with no effect”.

As to L459S, the “effect of a mutation on the interaction” value is listed as “disrupting interaction strength”.

Consider L459A, for which the “effect of a mutation on the interaction” value is listed as “with no effect”.

Take T481E: the “effect of a mutation on the interaction” value is “with no effect”.

As for T481A, the “effect of a mutation on the interaction” value is given as “with no effect”.

As for T481K, the “effect of a mutation on the interaction” value is given as “with no effect”.

In the case of G496K, the “effect of a mutation on the interaction” value is “with no effect”.

As to G496E, the “effect of a mutation on the interaction” value is listed as “with no effect”.

As for G496A, the “effect of a mutation on the interaction” value is reported as “with no effect”.

In the case of S509K, the “effect of a mutation on the interaction” value is “with no effect”.

For the variant S509L, the “effect of a mutation on the interaction” value is “disrupting interaction strength”.

Take S509A: the “effect of a mutation on the interaction” value is reported as “with no effect”.

As to S509E, the “effect of a mutation on the interaction” value is given as “with no effect”.

On to R465A, for which the “effect of a mutation on the interaction” value is recorded as “with no effect”.

Consider R465K, for which the “effect of a mutation on the interaction” value is listed as “with no effect”.

Take R465E: the “effect of a mutation on the interaction” value was “with no effect”.

With Q493A, the “effect of a mutation on the interaction” value is “with no effect”.

As to Q493E, the “effect of a mutation on the interaction” value was “with no effect”.

As to Q493K, the “effect of a mutation on the interaction” value was “with no effect”.

As to T502E, the “effect of a mutation on the interaction” value is on record as “with no effect”.

Consider T502A, for which the “effect of a mutation on the interaction” value was “with no effect”.

For the variant T502K, the “effect of a mutation on the interaction” value is on record as “with no effect”.

In the case of H489K, the “effect of a mutation on the interaction” value was “with no effect”.

With H489A, the “effect of a mutation on the interaction” value is recorded as “with no effect”.

For H489E, the “effect of a mutation on the interaction” value is recorded as “with no effect”.

Regarding A482K, the “effect of a mutation on the interaction” value is “with no effect”.

With A482E, the “effect of a mutation on the interaction” value is on record as “with no effect”.

In the case of L478E, the “effect of a mutation on the interaction” value was “with no effect”.

For the variant L478K, the “effect of a mutation on the interaction” value was “with no effect”.

On to L478A, for which the “effect of a mutation on the interaction” value is given as “with no effect”.

For the variant L471F, the “effect of a mutation on the interaction” value is listed as “disrupting interaction strength”.

Turning to L471E, the “effect of a mutation on the interaction” value is recorded as “with no effect”.

Take L471A: the “effect of a mutation on the interaction” value is on record as “with no effect”.

With L471K, the “effect of a mutation on the interaction” value is recorded as “with no effect”.

Turning to L505P, the “effect of a mutation on the interaction” value is on record as “disrupting interaction strength”.

Take L505E: the “effect of a mutation on the interaction” value is reported as “disrupting interaction strength”.

Take L505K: the “effect of a mutation on the interaction” value is “disrupting interaction strength”.
